For experiment [1], the target named is human EGFR-Fc mutant (L325V, S340A) (human) (UniProt P00533). As to the kind of experiment: SPR, human EGFR-Fc (L325V, S340A).
Experiment [2] addresses Mouse EGFR-Fc (mouse) (UniProt Q01279). The experiment can be described thus: SPR, murine EGFR-Fc; bracket from the bars of 7D12 and 9G8 to this bar. In general terms: SPR reads the build-up and loss of mass on a sensor chip optically.
The target is the same in experiment [3]. The experiment can be described thus: SPR, murine EGFR-Fc.
The target of experiment [4] is human EGFR-Fc mutant (L325V, S340A) (human) (UniProt P00533). As to the kind of experiment: SPR (Biacore), 37 °C.
Experiment [5] concerns the target Human EGFR-Fc (human) (UniProt P00533). The experiment can be described thus: SPR (Biacore), 37 °C.
In experiment [6] the target is Mouse EGFR-Fc (mouse) (UniProt Q01279). As to the kind of experiment: SPR, 25 °C.
Experiment [7] concerns the target Human EGFR-Fc (human) (UniProt P00533). The experiment can be described thus: yeast surface display titration with human EGFR (panel Yeast display: HuL6-7D12).
Experiment [8] has as its target Mouse EGFR-Fc (mouse) (UniProt Q01279). The experiment can be described thus: SPR (Biacore), 25 °C.

For the substance 7D12-(AP)12-9G8, the Kd was 0.6 nM in experiment [1] and 192 nM in experiment [3]. For the same substance, the k' in experiment [2] was 950000.

As to 7D12-KGR-(EAAAK)8-AGG-[-AA]9G8, the dissociation constant (Kd) in experiment [3] was determined as 17 nM.

On to 7D12-(AP)12-VSG-[-AA]9G8, for which the results for the dissociation constant Kd in experiment [1] and in experiment [3] were 0.04 nM and 0.7 nM, respectively.

As to 9G8 (VHH), the dissociation constant Kd amounted to 13 nM in experiment [4] and 3.8 nM in experiment [5].

In the case of 7D12-(EAAAK)8-9G8, the Kd in experiment [3] amounted to 194 nM.

For 7D12-(E4K4)5-9G8, the figures for the Kd in experiment [1] and in experiment [3] were 2 nM and 621 nM, respectively.

As to 7D12-(GGGS)3-9G8, the dissociation constant (Kd) in experiment [3] stood at 162 nM. In other words, the sub-micromolar range.

In turn, 7D12-FFH-(EAAAK)6-GGG-[-AA]9G8 returned a Kd in experiment [3] of 8.8 nM.

As to 7D12 (VHH), the dissociation constant Kd was found to be 210 nM in experiment [4], 7200 nM in experiment [6], 2.1 nM in experiment [7] and 7200 nM in experiment [8].

7D12-SSV-(E4K4)4-GPG-[-AA]9G8: the Kd in experiment [3] came out at 3.1 nM.

For 7D12-WMV-(GGGS)6-VTG-[-AA]9G8, the Kd in experiment [1] was 0.04 nM; in experiment [3], 1.2 nM.

The substance 7D12-(EAAAK)8-VSG-[-AA]9G8 gave a dissociation constant Kd in experiment [3] of 1.2 nM. In other words, the single-digit nanomolar range.

In general, Kd refers to the free concentration of one partner at which half of the binding sites on the other are occupied at equilibrium, for simple one-to-one binding. The low end stands for a tighter complex, the high end for a looser complex.

These data come from patent US20250199010A1.
